{
  "source": "patent US20210230244A1",
  "about": "(NATIONAL INSTITUTE OF IMMUNOLOGY, published 2021)",
  "target": "T1, Abeta 1-42 peptide",
  "T1 construct": "Used at 100 micromolar in PBS pH 7.4 at 37 C, where it aggregates into oligomers and fibrils, so it was not a defined monomer in the assays; also called Abeta42; Abeta 42",
  "T1 sequence (peptide, as listed by the source)": "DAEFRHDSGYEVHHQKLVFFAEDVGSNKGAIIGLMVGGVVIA",
  "test": "Glu-OC (25 ng-0.1 ng) incubated with 100 micromolar Abeta42; A11 reactivity and AFM",
  "note": "Bridge positions count the residues as written; N and C are the ends. Ends that are not written are not given here.",
  "data": [
    {"binder": "YLYQWLGAPVPYPDPLEPRREVCELNPDCDELADHIGFQEAYRRFYGPV (disulfide 23-29, also called Glu-OC; uncarboxylated osteocalcin)", "note": "[undercarboxylated osteocalcin]", "values": [
      {"measurement": "binding result", "result": "binds"}
    ]}
  ]
}
